In one experiment the target is T1, CBP-Upf1-CH-HD I693R (S. cerevisiae, UniProt P30771 54-851, I693R).
T1 sequence: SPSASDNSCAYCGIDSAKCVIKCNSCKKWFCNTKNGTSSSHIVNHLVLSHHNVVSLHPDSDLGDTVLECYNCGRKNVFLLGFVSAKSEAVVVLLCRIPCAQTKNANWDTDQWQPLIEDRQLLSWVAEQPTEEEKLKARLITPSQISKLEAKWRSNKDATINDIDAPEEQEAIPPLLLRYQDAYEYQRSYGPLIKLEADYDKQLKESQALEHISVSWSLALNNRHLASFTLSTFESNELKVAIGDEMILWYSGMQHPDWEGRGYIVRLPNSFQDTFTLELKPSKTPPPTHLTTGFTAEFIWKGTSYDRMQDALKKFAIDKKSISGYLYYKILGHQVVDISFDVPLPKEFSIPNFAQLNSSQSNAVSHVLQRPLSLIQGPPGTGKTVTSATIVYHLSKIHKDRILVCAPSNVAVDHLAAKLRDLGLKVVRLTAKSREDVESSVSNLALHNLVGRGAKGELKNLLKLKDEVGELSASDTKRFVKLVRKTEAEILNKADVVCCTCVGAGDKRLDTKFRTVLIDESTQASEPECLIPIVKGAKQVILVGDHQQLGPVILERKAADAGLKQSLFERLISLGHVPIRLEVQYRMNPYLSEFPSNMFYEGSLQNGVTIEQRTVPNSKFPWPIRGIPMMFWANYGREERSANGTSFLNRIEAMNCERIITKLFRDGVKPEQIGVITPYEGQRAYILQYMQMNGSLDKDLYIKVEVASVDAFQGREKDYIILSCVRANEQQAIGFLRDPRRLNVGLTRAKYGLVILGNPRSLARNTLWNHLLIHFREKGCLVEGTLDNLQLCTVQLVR
As to the kind of experiment: pull-down.

In experiment [1] the target is CBP-Upf1-CH-His (S. cerevisiae). As to the kind of experiment: fluorescence polarisation.
Experiment [2] concerns the target T2, CBP-Upf1-FL (S.c. Upf1 full-length) (S. cerevisiae, UniProt P30771 1-971).
T2 sequence: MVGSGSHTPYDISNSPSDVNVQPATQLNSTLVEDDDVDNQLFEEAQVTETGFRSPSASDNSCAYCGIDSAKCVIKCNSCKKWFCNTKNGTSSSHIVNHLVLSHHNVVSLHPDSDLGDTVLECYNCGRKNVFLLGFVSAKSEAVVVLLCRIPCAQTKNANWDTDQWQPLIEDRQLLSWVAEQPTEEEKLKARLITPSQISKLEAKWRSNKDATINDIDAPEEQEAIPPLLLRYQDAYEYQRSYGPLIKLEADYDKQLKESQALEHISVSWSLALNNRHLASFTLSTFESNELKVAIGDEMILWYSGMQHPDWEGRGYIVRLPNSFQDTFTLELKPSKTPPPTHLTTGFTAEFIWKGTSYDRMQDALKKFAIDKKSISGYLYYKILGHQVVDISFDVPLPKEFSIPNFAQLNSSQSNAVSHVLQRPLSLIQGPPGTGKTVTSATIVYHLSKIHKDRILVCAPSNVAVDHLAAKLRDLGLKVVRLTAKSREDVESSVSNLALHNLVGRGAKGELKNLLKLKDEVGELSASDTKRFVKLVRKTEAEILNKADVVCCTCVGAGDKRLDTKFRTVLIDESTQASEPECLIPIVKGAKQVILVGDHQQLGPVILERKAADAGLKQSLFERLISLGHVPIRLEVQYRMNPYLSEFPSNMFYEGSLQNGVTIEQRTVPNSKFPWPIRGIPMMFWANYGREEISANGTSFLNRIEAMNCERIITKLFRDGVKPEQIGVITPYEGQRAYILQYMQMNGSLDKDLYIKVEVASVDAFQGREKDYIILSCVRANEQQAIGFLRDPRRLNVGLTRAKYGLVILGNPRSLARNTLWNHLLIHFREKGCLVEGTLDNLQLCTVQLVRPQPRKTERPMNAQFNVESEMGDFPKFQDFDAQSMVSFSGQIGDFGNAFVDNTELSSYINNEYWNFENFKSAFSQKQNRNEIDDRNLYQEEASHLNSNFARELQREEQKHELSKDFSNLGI
Description: pull-down.

For the next experiment, the target named is T3, CBP-Upf1-CH-HD (S. cerevisiae, UniProt P30771 54-851).
T3 sequence: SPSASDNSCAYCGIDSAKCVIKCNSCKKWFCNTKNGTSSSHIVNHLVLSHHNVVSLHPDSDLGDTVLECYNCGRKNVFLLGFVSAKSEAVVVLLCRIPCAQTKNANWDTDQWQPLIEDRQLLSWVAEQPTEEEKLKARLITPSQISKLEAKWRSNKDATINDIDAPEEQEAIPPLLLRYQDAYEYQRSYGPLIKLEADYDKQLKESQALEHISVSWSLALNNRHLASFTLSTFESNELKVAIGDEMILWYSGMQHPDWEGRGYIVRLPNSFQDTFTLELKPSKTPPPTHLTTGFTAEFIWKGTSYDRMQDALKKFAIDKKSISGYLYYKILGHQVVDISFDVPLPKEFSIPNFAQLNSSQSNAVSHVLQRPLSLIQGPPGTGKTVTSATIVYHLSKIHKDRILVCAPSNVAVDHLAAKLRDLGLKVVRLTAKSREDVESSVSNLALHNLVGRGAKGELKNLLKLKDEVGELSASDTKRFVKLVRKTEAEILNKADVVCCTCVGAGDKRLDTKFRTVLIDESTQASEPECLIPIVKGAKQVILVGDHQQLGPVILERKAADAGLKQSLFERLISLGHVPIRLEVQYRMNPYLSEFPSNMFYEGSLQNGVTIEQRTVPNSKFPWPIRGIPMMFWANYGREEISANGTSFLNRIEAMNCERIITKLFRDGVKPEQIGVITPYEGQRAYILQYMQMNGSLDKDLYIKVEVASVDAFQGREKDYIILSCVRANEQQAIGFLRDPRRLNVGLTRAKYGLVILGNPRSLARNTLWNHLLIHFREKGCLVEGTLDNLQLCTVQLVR
Description: native gel or EMSA. On the technique in general: A gel shift assay detects complexes by their altered migration in electrophoresis.

This passage reports binding result and Kd results from article PMC11897886 (Nucleic Acids Research, 2024).

B1: Upf2 (933-1089)-His (domain or fragment)
chain: SDSDLEYGGDLDADRDIEMKRMYEEYERKLKDEEERKAEEELERQFQKMMQESIDARKSEKVVASKIPVISKPVSVQKPLLLKKSEEPSSSKETYEELSKPKKIAFTFLTKSGKKTQSRILQLPTDVKFVSDVLEEEEKLKTERNKIKKIVLKRSFD
As to B1, the binding result in the experiment with CBP-Upf1-CH-HD I693R is “binds”. This molecule had a Kd in experiment [1] of 430 nM.

B2: Nmd4-His (C-terminal His-tagged Nmd4) (natural protein)
chain: MTQYNFIIDASAFEKGLGNIKRWCSDCTEAVTLNFYIPTFTLNELDFLQQRRKSFAARESLKFIDRLDDSKFANLKVFIEFPEVLDIILWSDVMEHNDSSGKINIAKLPKRLKNLLKSCIYKCYLEGNEGLHWFLISEDPQIREMAMQCNIPSCSIVDVDSILSKDMNDKSFRESEKFNNMMLKNGTKEESENGREIIRTNFNKTVYASRGTGELWSP
On to B2, for which the binding result (in experiment [2]; with CBP-Upf1-CH-HD) was “binds” each time.

The term Kd denotes the constant that tells how readily two partners part at equilibrium.
